Assay results reported in patent US20250382373A1 (BIOCYTOGEN PHARMACEUTICALS BEIJING, published 2025).
Substitutions are numbered along the chain they refer to. Where two headings read alike, the source gives them in different places.

Experiments:
[1] = biological target: T1, His-tagged human EGFR protein (human, UniProt P00533 25-645); experiment: SPR (Biacore 8K), Protein A chip
T1 construct: Bought protein; also called hEGFR-His; not shown: His tag

[2] = biological target: T2, His-tagged monkey EGFR protein (monkey (crab-eating macaque; Macaca …, UniProt A0A2K5WK39 25-645); experiment: SPR (Biacore 8K), Protein A chip
T2 construct: also called fasEGFR-His; not shown: His tag

[3] = biological target: T3, His-tagged human MET protein (human, UniProt P08581 25-932); experiment: SPR (Biacore 8K), Protein A chip
T3 construct: Bought protein; also called hMET-His; not shown: His tag
T3 sequence (P08581 25-932 limits assumed): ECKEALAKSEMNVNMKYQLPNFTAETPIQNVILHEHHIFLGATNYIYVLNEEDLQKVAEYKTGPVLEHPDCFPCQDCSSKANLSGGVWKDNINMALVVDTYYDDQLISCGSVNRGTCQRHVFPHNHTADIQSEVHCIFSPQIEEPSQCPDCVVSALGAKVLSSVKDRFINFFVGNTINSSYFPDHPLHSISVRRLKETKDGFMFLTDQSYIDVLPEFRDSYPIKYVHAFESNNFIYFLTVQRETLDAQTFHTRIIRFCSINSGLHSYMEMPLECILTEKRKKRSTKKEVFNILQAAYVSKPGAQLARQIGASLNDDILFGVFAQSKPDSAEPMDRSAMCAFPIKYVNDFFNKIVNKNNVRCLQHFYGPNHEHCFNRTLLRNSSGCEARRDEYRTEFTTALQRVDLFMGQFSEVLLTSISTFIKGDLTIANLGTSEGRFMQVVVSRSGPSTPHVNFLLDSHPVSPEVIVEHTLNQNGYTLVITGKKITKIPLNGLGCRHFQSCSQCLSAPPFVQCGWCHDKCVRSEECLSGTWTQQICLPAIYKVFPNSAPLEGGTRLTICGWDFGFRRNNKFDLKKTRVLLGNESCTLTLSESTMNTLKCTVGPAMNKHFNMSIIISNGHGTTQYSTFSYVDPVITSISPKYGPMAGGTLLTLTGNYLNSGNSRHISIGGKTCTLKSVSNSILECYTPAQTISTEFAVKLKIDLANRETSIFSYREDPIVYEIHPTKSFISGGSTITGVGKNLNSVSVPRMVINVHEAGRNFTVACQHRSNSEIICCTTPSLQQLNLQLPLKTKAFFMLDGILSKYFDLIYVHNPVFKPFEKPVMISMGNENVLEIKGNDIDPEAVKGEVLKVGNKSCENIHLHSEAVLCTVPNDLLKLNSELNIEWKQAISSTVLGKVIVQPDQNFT

[4] = biological target: T4, human EGFR on CHO-S-hEGFR cells (human, UniProt P00533 25-645); experiment: flow cytometry on CHO-S-hEGFR cells
[5] = biological target: T5, monkey EGFR on CHO-S-fasEGFR cells (monkey (crab-eating macaque; Macaca …, UniProt P55245 25-645); experiment: flow cytometry on CHO-S-fasEGFR cells; further: test concentration or dose not given here
[6] = biological target: T1, His-tagged human EGFR protein; experiment: SPR (Biacore 8K), antibody on Protein A chip
[7] = biological target: T2, His-tagged monkey EGFR protein; experiment: SPR (Biacore 8K), antibody on Protein A chip
[8] = biological target: T4, human EGFR on CHO-S-hEGFR cells; experiment: flow cytometry on CHO-S-hEGFR cells; remark: listed apart in the source
[9] = biological target: T5, monkey EGFR on CHO-S-fasEGFR cells; experiment: flow cytometry on CHO-S-fasEGFR cells; remark: listed apart in the source; further: test concentration or dose not given here
[10] = biological target: T1, His-tagged human EGFR protein; experiment: SPR (Biacore 8K), antibody on Protein A chip; remark: listed apart in the source
[11] = biological target: T2, His-tagged monkey EGFR protein; experiment: SPR (Biacore 8K), antibody on Protein A chip; remark: listed apart in the source
[12] = biological target: T6, human MET on SNU-5 cells (human, UniProt P08581 25-1390); experiment: flow cytometry on SNU-5 cells
T6 construct: whole, on cells; Endogenous MET of SNU-5 cells
T6 sequence (P08581 25-1390): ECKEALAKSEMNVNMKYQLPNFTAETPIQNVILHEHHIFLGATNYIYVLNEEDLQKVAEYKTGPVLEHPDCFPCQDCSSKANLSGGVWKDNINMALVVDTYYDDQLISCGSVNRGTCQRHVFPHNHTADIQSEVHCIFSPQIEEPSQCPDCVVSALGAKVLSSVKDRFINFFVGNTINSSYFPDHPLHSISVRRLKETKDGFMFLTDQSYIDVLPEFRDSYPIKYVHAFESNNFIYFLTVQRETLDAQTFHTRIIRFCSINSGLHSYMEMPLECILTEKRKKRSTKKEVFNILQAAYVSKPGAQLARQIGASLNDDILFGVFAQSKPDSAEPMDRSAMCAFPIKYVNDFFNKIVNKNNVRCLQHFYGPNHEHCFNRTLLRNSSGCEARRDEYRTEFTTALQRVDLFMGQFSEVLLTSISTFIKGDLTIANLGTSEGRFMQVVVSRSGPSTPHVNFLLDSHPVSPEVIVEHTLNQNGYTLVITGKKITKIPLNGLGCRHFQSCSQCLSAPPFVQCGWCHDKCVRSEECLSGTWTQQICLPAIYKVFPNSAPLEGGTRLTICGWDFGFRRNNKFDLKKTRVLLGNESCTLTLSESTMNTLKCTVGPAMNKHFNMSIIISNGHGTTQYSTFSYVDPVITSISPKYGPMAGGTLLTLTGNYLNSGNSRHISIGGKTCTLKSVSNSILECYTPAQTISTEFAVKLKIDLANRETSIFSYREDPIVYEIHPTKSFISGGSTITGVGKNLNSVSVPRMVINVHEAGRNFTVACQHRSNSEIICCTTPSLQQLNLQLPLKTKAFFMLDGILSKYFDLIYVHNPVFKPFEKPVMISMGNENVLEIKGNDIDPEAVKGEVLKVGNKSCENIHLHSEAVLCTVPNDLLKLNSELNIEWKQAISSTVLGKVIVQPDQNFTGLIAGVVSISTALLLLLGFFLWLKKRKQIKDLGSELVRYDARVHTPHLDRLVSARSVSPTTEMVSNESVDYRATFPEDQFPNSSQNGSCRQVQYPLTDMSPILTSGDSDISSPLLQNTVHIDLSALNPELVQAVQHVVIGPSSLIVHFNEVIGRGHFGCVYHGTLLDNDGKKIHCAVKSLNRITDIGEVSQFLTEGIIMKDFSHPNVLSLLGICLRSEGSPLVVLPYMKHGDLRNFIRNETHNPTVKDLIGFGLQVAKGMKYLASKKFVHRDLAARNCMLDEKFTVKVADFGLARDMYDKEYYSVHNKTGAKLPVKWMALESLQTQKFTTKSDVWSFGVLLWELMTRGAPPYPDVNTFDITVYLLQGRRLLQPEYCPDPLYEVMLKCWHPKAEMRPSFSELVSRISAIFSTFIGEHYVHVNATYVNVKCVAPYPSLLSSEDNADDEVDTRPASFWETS

[13] = biological target: T7, monkey MET on fasMET-NIH3T3 cells (monkey (Macaca fascicularis)); experiment: flow cytometry on fasMET-NIH3T3 cells; further: test concentration or dose not given here
T7 sequence (chain, as listed by the source limits assumed): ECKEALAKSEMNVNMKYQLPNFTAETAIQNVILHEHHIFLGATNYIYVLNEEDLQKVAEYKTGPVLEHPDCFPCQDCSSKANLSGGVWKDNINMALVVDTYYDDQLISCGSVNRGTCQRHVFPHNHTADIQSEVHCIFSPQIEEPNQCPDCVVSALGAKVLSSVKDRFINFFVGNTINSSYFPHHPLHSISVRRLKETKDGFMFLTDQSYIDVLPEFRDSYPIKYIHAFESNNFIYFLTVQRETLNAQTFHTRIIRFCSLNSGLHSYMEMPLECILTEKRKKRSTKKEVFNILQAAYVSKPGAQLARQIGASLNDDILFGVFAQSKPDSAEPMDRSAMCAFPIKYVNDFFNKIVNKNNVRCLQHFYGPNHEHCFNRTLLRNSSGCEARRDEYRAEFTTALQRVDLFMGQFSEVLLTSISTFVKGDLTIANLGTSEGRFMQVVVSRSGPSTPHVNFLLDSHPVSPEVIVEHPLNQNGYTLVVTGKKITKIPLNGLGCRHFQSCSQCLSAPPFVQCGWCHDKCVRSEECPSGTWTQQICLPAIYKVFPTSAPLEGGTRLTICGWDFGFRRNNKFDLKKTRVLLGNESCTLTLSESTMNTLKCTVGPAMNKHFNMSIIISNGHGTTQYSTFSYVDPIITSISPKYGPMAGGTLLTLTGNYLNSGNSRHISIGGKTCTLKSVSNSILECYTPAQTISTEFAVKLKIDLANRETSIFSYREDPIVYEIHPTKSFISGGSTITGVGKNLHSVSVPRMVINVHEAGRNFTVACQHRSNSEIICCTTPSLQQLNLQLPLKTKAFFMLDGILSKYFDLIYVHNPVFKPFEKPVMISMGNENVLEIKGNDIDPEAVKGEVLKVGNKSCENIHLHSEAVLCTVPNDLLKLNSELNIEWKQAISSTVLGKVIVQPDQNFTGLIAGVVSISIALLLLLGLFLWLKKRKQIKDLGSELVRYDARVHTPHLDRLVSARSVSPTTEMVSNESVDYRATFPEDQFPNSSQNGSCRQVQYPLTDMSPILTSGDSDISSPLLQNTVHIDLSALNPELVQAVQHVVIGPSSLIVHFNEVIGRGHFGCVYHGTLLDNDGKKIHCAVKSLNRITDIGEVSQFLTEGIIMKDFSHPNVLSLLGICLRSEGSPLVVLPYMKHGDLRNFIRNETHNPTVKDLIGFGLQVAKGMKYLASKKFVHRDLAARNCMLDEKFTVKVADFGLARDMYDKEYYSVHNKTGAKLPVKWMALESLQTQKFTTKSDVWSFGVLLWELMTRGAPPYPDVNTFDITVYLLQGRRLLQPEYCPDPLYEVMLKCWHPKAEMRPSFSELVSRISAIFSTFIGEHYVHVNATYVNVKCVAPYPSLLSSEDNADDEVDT

[14] = biological target: T3, His-tagged human MET protein; experiment: SPR (Biacore 8K), antibody on Protein A chip
[15] = biological target: human MET on hMET-NIH3T3 cells (human, UniProt P08581 25-1390); experiment: flow cytometry on hMET-NIH3T3 cells; further: test concentration or dose not given here
[16] = biological target: T7, monkey MET on fasMET-NIH3T3 cells; experiment: flow cytometry on fasMET-NIH3T3 cells; remark: listed apart in the source; further: test concentration or dose not given here
[17] = biological target: T3, His-tagged human MET protein; experiment: SPR (Biacore 8K), antibody on Protein A chip; remark: listed apart in the source

B1: E-2B7 (antibody, V domains shown)
VH: EVQLQQWGPGLVKPSQTLSLTCTVSGGSINSGDYYWSWIRQPPGKGLEWIGYIYYSGSTYYNPSLKSRVTISLDTSKNQLSLKLSSVTAADTAVYYCARNNDFGDYLYFDNWGQGTLVTVSS
VL: not shown
B1 was tested, and the Kd [1] was 4.22 nM, the koff [1] was 0.000301 s⁻¹ and the kon [1] was 71500 M⁻¹ s⁻¹. For the same binder, the Kd [2] was 6.49 nM, the koff [2] was 0.000296 s⁻¹ and the kon [2] was 45600 M⁻¹ s⁻¹. The binding result [3] was “no binding (tested: antigen up to 400 nM)”, the “Percentage of Positive Cells” value [4] was 26.1% and the “Percentage of Positive Cells” value [5] was 28.6%. For the same binder, the Kd [6] was 4.69 nM, the koff [6] was 0.000286 s⁻¹ and the kon [6] was 61000 M⁻¹ s⁻¹. For the same binder, the Kd [7] was 5.32 nM, the koff [7] was 0.000342 s⁻¹ and the kon [7] was 64300 M⁻¹ s⁻¹.

B2: E-9A6 (antibody, V domains shown)
VH: EVQLQQSGPGLVKPSQTLSLTCTVSGGSISSGDYYWNWIRQPPGKGLEWIGYIYYSGSTYYNPSLKSRVTISVDTSKNQFSLKLSSVTAADTAVYYCAREGVYTIMVDYWGQGTLVTVSS
VL: not shown
With B2 the “Percentage of Positive Cells” value [8] was 56.9%, the “Percentage of Positive Cells” value [9] was 55.4% and the Kd [10] was 9.44 nM. For the same binder, the koff [10] was 0.00176 s⁻¹, the kon [10] was 186000 M⁻¹ s⁻¹ and the Kd [11] was 12.6 nM. It also gave a koff [11] of 0.00173 s⁻¹ and a kon [11] of 138000 M⁻¹ s⁻¹.

B3: E-6C4 (antibody, V domains shown)
VH: QVQLQQWGPGLVKPSQTLSLTCTVSGGSINSGDYYWSWIRQPPGKGLESIGYIYYSGSTYYNPSLKSRVTISADTSKNQFSLKLTSVTAADTAVYYCARERVYSSSLDYWGQGTLVTVSS
VL: not shown
With B3 the Kd [2] was 158 nM, the binding result [3] was “no binding (tested: antigen up to 400 nM)” and the “Percentage of Positive Cells” value [4] was 26.4%. The “Percentage of Positive Cells” value [5] was 25.4% and the Kd [7] was 90.3 nM.

B4: E-9D2 (antibody, V domains shown)
VH: EVQLQESGPGLVKPSQTLSLTCTVSGGSISSGDYYWSWIRQPPGKGLEWIGYIYYSGSTYYNPSLKSRVTISVDTSKNQFSLRLSSVTAADTAVYYCARDLVYYYALDVWGQGTTVTVSS
VL: not shown
In the case of B4, the “Percentage of Positive Cells” value [8] is reported as 38.7%, the “Percentage of Positive Cells” value [9] is reported as 45.9% and the Kd [10] is reported as 60.3 nM. For the same binder, the koff [10] was 0.0152 s⁻¹, the kon [10] was 252000 M⁻¹ s⁻¹ and the Kd [11] was 99.8 nM. The koff [11] was 0.0203 s⁻¹ and the kon [11] was 203000 M⁻¹ s⁻¹.

B5: E-9H2 (antibody, V domains shown)
VH: EVQLVESGPGLVKPSQTLSLTCTVSGDSISSGDYYWSWIRQPPGKGLEWIGYIYYSGSTYYNPSLKSRVIISLDTSKNQFSLKLISVTAADTAVYYCARVGVYSTSRDYWGQGTLVTVSS
VL: not shown
In the case of B5, the “Percentage of Positive Cells” value [8] is reported as 44.3%, the “Percentage of Positive Cells” value [9] is reported as 41.5% and the Kd [10] is reported as 98.3 nM. For the same binder, the koff [10] was 0.0151 s⁻¹, the kon [10] was 154000 M⁻¹ s⁻¹ and the Kd [11] was 152 nM. For the same binder, the koff [11] was 0.0177 s⁻¹ and the kon [11] was 117000 M⁻¹ s⁻¹.

B6: E-9F3 (antibody, V domains shown)
VH: QVQLQESGPGLVKPSQTLSLTCTVSGGSINSGDYYWSWIRQPPGKGLEWIGHIYYSGITYYNPSLKSRVTISADTSKNQFSLKLTSVTVADTAVYYCDRAGVYHDMDVWGQGTTVTVSS
VL: not shown
With B6 the “Percentage of Positive Cells” value [8] was 53.1%, the “Percentage of Positive Cells” value [9] was 53.7% and the Kd [10] was 27.2 nM. It also gave a koff [10] of 0.00177 s⁻¹, a kon [10] of 64900 M⁻¹ s⁻¹ and a Kd [11] of 39.9 nM. The koff [11] was 0.0019 s⁻¹ and the kon [11] was 47600 M⁻¹ s⁻¹.

B7: E-3A8 (antibody, V domains shown)
VH: EVQLVESGGGLVQPGGSLRLSCAVSGFIFSSYEMNWVRQAPGKGLEWVSYISSSGSTIYYADSVKGRFTISRDNAMNSLNLQMNSLRDEDTAVYYCVRVWYSSGWSGCFAYWGQGSLVTVSS
VL: not shown
For B7, the “Percentage of Positive Cells” value [4] was 31.2%, the “Percentage of Positive Cells” value [5] was 23.8% and the Kd [6] was 23.2 nM. For the same binder, the koff [6] was 0.00101 s⁻¹, the kon [6] was 43500 M⁻¹ s⁻¹ and the Kd [7] was 21.3 nM. The koff [7] was 0.00104 s⁻¹ and the kon [7] was 48700 M⁻¹ s⁻¹.

B8: E-3D8 (antibody, V domains shown)
VH: B7 VH with V24A, M76K, N80Y, D88A, E89D, V93I, V97A, S116T
VL: not shown
B8 was tested, and the “Percentage of Positive Cells” value [4] was 28.8%, the “Percentage of Positive Cells” value [5] was 24.1% and the Kd [6] was 39 nM. The koff [6] was 0.00132 s⁻¹, the kon [6] was 33900 M⁻¹ s⁻¹ and the Kd [7] was 34 nM. It also gave a koff [7] of 0.00132 s⁻¹ and a kon [7] of 38700 M⁻¹ s⁻¹.

B9: M-1E9 (antibody, V domains shown)
VH: QVQLQQWGAGLLKPSETLSLTCVVFGGSFSGYYWSWIRQPPGKGLEWIGEINHSGSTNYNPSLKSRVTVSVDTSKKQFSLNLRSVTAADTAVYYCARGRGIAAAGTYFDYWGQGNLVTVSS
VL: not shown
In the case of B9, the “Percentage of Positive Cells” value [12] is reported as 99.3%, the “Percentage of Positive Cells” value [13] is reported as 48.8% and the Kd [14] is reported as 30.1 nM. The koff [14] was 0.000698 s⁻¹ and the kon [14] was 23200 M⁻¹ s⁻¹.

B10: M-2F11 (antibody, V domains shown)
VH: EVQLVESGPGLVKPSETLSLTCTVSGGSISSNYWSWIRQPPGKGLEWIGYIYHSGSTNYNPSLKSRVTISVDTSKNQFSLKLSSVTAADTAVYFCARGPVSIFGVVKYIDLWGRGTLVTVSS
VL: not shown
With B10 the “Percentage of Positive Cells” value [12] was 97.1%, the binding result [1] was “no binding (tested: antigen up to 400 nM)” and the binding result [2] was “no binding (tested: antigen up to 400 nM)”. The Kd [3] was 55.6 nM, the koff [3] was 0.0022 s⁻¹ and the kon [3] was 39600 M⁻¹ s⁻¹. For the same binder, the “Percentage of Positive Cells” value [13] was 71.1%, the Kd [14] was 54.2 nM and the koff [14] was 0.00313 s⁻¹. It also gave a kon [14] of 57700 M⁻¹ s⁻¹.

B11: M-2G10 (antibody, V domains shown)
VH: EVQLVESGGGVVQPGRSLRLSCAASGFTFNICGIHWVRQAPGKGLEWVATISHDANDKYYADSVKGRFTISRDNSKNTLYLQMNSLRAEDTAVYYCARDGNRGYDGYFDYWGQGTLVTVSS
VL: not shown
B11 was tested, and the “Percentage of Positive Cells” value [12] was 98.7%, the binding result [1] was “no binding (tested: antigen up to 400 nM)” and the binding result [2] was “no binding (tested: antigen up to 400 nM)”. The Kd [3] was 63.6 nM, the koff [3] was 0.00362 s⁻¹ and the kon [3] was 57000 M⁻¹ s⁻¹. The “Percentage of Positive Cells” value [13] was 21%, the Kd [14] was 31.9 nM and the koff [14] was 0.00605 s⁻¹. It also gave a kon [14] of 189000 M⁻¹ s⁻¹.

B12: M-8D9 (antibody, V domains shown)
VH: QVQLQESGPGLVKPSETLSLTCTVSGGSISGHYWSWIRQSPGKGLEWIGYITYSGSTNYNPSLKSRVTISVDTSKNQFSLKLSSVTAADTAVYYCGTIAVAGRVYYYGVDVWGRGTTVTVSS
VL: not shown
For B12, the “Percentage of Positive Cells” value [15] was 99.8%, the “Percentage of Positive Cells” value [16] was 65.3% and the Kd [17] was 18.6 nM. The koff [17] was 0.000505 s⁻¹ and the kon [17] was 27100 M⁻¹ s⁻¹.

B13: E-2B7-M-2F11 (bispecific antibody)
VH 1: B1 VH
VH 2: B10 VH
light: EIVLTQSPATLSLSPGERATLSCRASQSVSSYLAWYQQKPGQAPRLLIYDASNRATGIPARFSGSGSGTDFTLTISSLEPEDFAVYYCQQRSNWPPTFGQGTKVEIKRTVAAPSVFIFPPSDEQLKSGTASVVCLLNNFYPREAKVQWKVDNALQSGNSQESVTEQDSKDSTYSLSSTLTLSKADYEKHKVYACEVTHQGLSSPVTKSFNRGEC
notes: 1+1 IgG1 bispecific with knobs-into-holes and a common light chain: first VH is the EGFR arm (E-2B7), second VH the MET arm (M-2F11); also called anti-EGFR/MET bispecific antibody E-2B7-M-2F11
B13 was tested, and the Kd [1] was 6.82 nM, the koff [1] was 0.000503 s⁻¹ and the kon [1] was 73800 M⁻¹ s⁻¹. For the same binder, the Kd [2] was 11.8 nM, the koff [2] was 0.000522 s⁻¹ and the kon [2] was 44300 M⁻¹ s⁻¹. The Kd [3] was 28.1 nM, the koff [3] was 0.00109 s⁻¹ and the kon [3] was 38700 M⁻¹ s⁻¹.

B14: E-6C4-M-2F11 (bispecific antibody)
VH 1: B3 VH
VH 2: B10 VH
light: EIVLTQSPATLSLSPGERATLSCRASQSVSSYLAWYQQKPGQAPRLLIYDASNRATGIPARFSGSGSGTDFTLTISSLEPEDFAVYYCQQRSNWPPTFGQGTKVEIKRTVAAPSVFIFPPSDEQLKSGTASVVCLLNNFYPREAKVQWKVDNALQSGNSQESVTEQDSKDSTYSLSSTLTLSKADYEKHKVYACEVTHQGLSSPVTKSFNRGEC
notes: also called anti-EGFR/MET bispecific antibody E-6C4-M-2F11
For B14, the Kd [1] was 70.7 nM, the koff [1] was 0.0215 s⁻¹ and the kon [1] was 304000 M⁻¹ s⁻¹. For the same binder, the Kd [2] was 115 nM, the koff [2] was 0.0198 s⁻¹ and the kon [2] was 172000 M⁻¹ s⁻¹. The Kd [3] was 50.5 nM, the koff [3] was 0.00187 s⁻¹ and the kon [3] was 37000 M⁻¹ s⁻¹.

B15: E-6C4-M-2G10 (bispecific antibody)
VH 1: B3 VH
VH 2: B11 VH
light: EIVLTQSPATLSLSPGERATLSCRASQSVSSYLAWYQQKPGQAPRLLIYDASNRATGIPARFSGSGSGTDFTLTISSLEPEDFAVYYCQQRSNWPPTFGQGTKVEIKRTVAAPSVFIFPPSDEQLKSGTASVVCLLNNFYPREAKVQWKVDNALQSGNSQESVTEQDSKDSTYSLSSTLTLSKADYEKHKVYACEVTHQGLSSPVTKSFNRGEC
notes: also called anti-EGFR/MET bispecific antibody E-6C4-M-2G10
B15 gave a Kd [1] of 53.1 nM, a koff [1] of 0.0174 s⁻¹ and a kon [1] of 328000 M⁻¹ s⁻¹. For the same binder, the Kd [2] was 80.9 nM, the koff [2] was 0.011 s⁻¹ and the kon [2] was 136000 M⁻¹ s⁻¹. For the same binder, the Kd [3] was 41.7 nM, the koff [3] was 0.00165 s⁻¹ and the kon [3] was 39500 M⁻¹ s⁻¹.
